The values below come from PMC8748612, “Maximizing response to intratumoral immunotherapy in mice by tuning local retention” (Nature Communications, 2022).

Sequences and labels used below:
B1: LAIR30.w.A V27A,D45G-MSA (other)
chain: QEGSLPDITIFPNSSLMISQGTFVTVACSYSDKHDLYNMVRLEKGGSTFMEKSTEPYKTEDEFEIGPVNETITGHYSCIYSKGITWSERSKTLELKVIKENVIQTPAPGPTSDTSWLKTYSIYEAHKSEIAHRYNDLGEQHFKGLVLIAFSQYLQKCSYDEHAKLVQEVTDFAKTCVADESAANCDKSLHTLFGDKLCAIPNLRENYGELADCCTKQEPERNECFLQHKDDNPSLPPFERPEAEAMCTSFKENPTTFMGHYLHEVARRHPYFYAPELLYYAEQYNEILTQCCAEADKESCLTPKLDGVKEKALVSSVRQRMKCSSMQKFGERAFKAWAVARLSQTFPNADFAEITKLATDLTKVNKECCHGDLLECADDRAELAKYMCENQATISSKLQTCCDKPLLKKAHCLSEVEHDTMPADLPAIAADFVEDQEVCKNYAEAKDVFLGTFLYEYSRRHPDYSVSLLLRLAKKYEATLEKCCAEANPPACYGTVLAEFQPLVEEPKNLVKTNCDLYEKLGEYGFQNAILVRYTQKAPQVSTPTLVEAARNLGRVGTKCCTLPEDQRLPCVEDYLSAILNRVCLLHEKTPVSEHVTKCCSGSLVERRPCFSALTVDETYVPKEFKAETFTFHSDICTLPEKEKQIKKQTALAELVKHKPKATAEQLKTVMDDFAQFLDTCCKAADKDTCFSTEGPNLVTRCKDALA
B2: LAIR30.w.B F49S-MSA (other)
chain: QEGSLPDITIFPNSSLMISQGTFVTVVCSYSDKHDLYNMVRLEKDGSTSMEKSTEPYKTEDEFEIGPVNETITGHYSCIYSKGITWSERSKTLELKVIKENVIQTPAPGPTSDTSWLKTYSIYEAHKSEIAHRYNDLGEQHFKGLVLIAFSQYLQKCSYDEHAKLVQEVTDFAKTCVADESAANCDKSLHTLFGDKLCAIPNLRENYGELADCCTKQEPERNECFLQHKDDNPSLPPFERPEAEAMCTSFKENPTTFMGHYLHEVARRHPYFYAPELLYYAEQYNEILTQCCAEADKESCLTPKLDGVKEKALVSSVRQRMKCSSMQKFGERAFKAWAVARLSQTFPNADFAEITKLATDLTKVNKECCHGDLLECADDRAELAKYMCENQATISSKLQTCCDKPLLKKAHCLSEVEHDTMPADLPAIAADFVEDQEVCKNYAEAKDVFLGTFLYEYSRRHPDYSVSLLLRLAKKYEATLEKCCAEANPPACYGTVLAEFQPLVEEPKNLVKTNCDLYEKLGEYGFQNAILVRYTQKAPQVSTPTLVEAARNLGRVGTKCCTLPEDQRLPCVEDYLSAILNRVCLLHEKTPVSEHVTKCCSGSLVERRPCFSALTVDETYVPKEFKAETFTFHSDICTLPEKEKQIKKQTALAELVKHKPKATAEQLKTVMDDFAQFLDTCCKAADKDTCFSTEGPNLVTRCKDALA
B3: LAIR30.w.F S90A-MSA (other)
chain: QEGSLPDITIFPNSSLMISQGTFVTVVCSYSDKHDLYNMVRLEKDGSTFMEKSTEPYKTEDEFEIGPVNETITGHYSCIYSKGITWSERAKTLELKVIKENVIQTPAPGPTSDTSWLKTYSIYEAHKSEIAHRYNDLGEQHFKGLVLIAFSQYLQKCSYDEHAKLVQEVTDFAKTCVADESAANCDKSLHTLFGDKLCAIPNLRENYGELADCCTKQEPERNECFLQHKDDNPSLPPFERPEAEAMCTSFKENPTTFMGHYLHEVARRHPYFYAPELLYYAEQYNEILTQCCAEADKESCLTPKLDGVKEKALVSSVRQRMKCSSMQKFGERAFKAWAVARLSQTFPNADFAEITKLATDLTKVNKECCHGDLLECADDRAELAKYMCENQATISSKLQTCCDKPLLKKAHCLSEVEHDTMPADLPAIAADFVEDQEVCKNYAEAKDVFLGTFLYEYSRRHPDYSVSLLLRLAKKYEATLEKCCAEANPPACYGTVLAEFQPLVEEPKNLVKTNCDLYEKLGEYGFQNAILVRYTQKAPQVSTPTLVEAARNLGRVGTKCCTLPEDQRLPCVEDYLSAILNRVCLLHEKTPVSEHVTKCCSGSLVERRPCFSALTVDETYVPKEFKAETFTFHSDICTLPEKEKQIKKQTALAELVKHKPKATAEQLKTVMDDFAQFLDTCCKAADKDTCFSTEGPNLVTRCKDALA
B4: LAIR30.w.E F63L-MSA (other)
chain: QEGSLPDITIFPNSSLMISQGTFVTVVCSYSDKHDLYNMVRLEKDGSTFMEKSTEPYKTEDELEIGPVNETITGHYSCIYSKGITWSERSKTLELKVIKENVIQTPAPGPTSDTSWLKTYSIYEAHKSEIAHRYNDLGEQHFKGLVLIAFSQYLQKCSYDEHAKLVQEVTDFAKTCVADESAANCDKSLHTLFGDKLCAIPNLRENYGELADCCTKQEPERNECFLQHKDDNPSLPPFERPEAEAMCTSFKENPTTFMGHYLHEVARRHPYFYAPELLYYAEQYNEILTQCCAEADKESCLTPKLDGVKEKALVSSVRQRMKCSSMQKFGERAFKAWAVARLSQTFPNADFAEITKLATDLTKVNKECCHGDLLECADDRAELAKYMCENQATISSKLQTCCDKPLLKKAHCLSEVEHDTMPADLPAIAADFVEDQEVCKNYAEAKDVFLGTFLYEYSRRHPDYSVSLLLRLAKKYEATLEKCCAEANPPACYGTVLAEFQPLVEEPKNLVKTNCDLYEKLGEYGFQNAILVRYTQKAPQVSTPTLVEAARNLGRVGTKCCTLPEDQRLPCVEDYLSAILNRVCLLHEKTPVSEHVTKCCSGSLVERRPCFSALTVDETYVPKEFKAETFTFHSDICTLPEKEKQIKKQTALAELVKHKPKATAEQLKTVMDDFAQFLDTCCKAADKDTCFSTEGPNLVTRCKDALA
B5: LAIR30.w.C E51G-MSA (other)
chain: QEGSLPDITIFPNSSLMISQGTFVTVVCSYSDKHDLYNMVRLEKDGSTFMGKSTEPYKTEDEFEIGPVNETITGHYSCIYSKGITWSERSKTLELKVIKENVIQTPAPGPTSDTSWLKTYSIYEAHKSEIAHRYNDLGEQHFKGLVLIAFSQYLQKCSYDEHAKLVQEVTDFAKTCVADESAANCDKSLHTLFGDKLCAIPNLRENYGELADCCTKQEPERNECFLQHKDDNPSLPPFERPEAEAMCTSFKENPTTFMGHYLHEVARRHPYFYAPELLYYAEQYNEILTQCCAEADKESCLTPKLDGVKEKALVSSVRQRMKCSSMQKFGERAFKAWAVARLSQTFPNADFAEITKLATDLTKVNKECCHGDLLECADDRAELAKYMCENQATISSKLQTCCDKPLLKKAHCLSEVEHDTMPADLPAIAADFVEDQEVCKNYAEAKDVFLGTFLYEYSRRHPDYSVSLLLRLAKKYEATLEKCCAEANPPACYGTVLAEFQPLVEEPKNLVKTNCDLYEKLGEYGFQNAILVRYTQKAPQVSTPTLVEAARNLGRVGTKCCTLPEDQRLPCVEDYLSAILNRVCLLHEKTPVSEHVTKCCSGSLVERRPCFSALTVDETYVPKEFKAETFTFHSDICTLPEKEKQIKKQTALAELVKHKPKATAEQLKTVMDDFAQFLDTCCKAADKDTCFSTEGPNLVTRCKDALA
B6: LAIR30.d.D E43A-MSA (other)
chain: QEGSLPDITIFPNSSLMISQGTFVTVVCSYSDKHDLYNMVRLAKDGSTFMEKSTEPYKTEDEFEIGPVNETITGHYSCIYSKGITWSERSKTLELKVIKENVIQTPAPGPTSDTSWLKTYSIYEAHKSEIAHRYNDLGEQHFKGLVLIAFSQYLQKCSYDEHAKLVQEVTDFAKTCVADESAANCDKSLHTLFGDKLCAIPNLRENYGELADCCTKQEPERNECFLQHKDDNPSLPPFERPEAEAMCTSFKENPTTFMGHYLHEVARRHPYFYAPELLYYAEQYNEILTQCCAEADKESCLTPKLDGVKEKALVSSVRQRMKCSSMQKFGERAFKAWAVARLSQTFPNADFAEITKLATDLTKVNKECCHGDLLECADDRAELAKYMCENQATISSKLQTCCDKPLLKKAHCLSEVEHDTMPADLPAIAADFVEDQEVCKNYAEAKDVFLGTFLYEYSRRHPDYSVSLLLRLAKKYEATLEKCCAEANPPACYGTVLAEFQPLVEEPKNLVKTNCDLYEKLGEYGFQNAILVRYTQKAPQVSTPTLVEAARNLGRVGTKCCTLPEDQRLPCVEDYLSAILNRVCLLHEKTPVSEHVTKCCSGSLVERRPCFSALTVDETYVPKEFKAETFTFHSDICTLPEKEKQIKKQTALAELVKHKPKATAEQLKTVMDDFAQFLDTCCKAADKDTCFSTEGPNLVTRCKDALA
B7: LAIRx-LAIRx-MSA^H464Q-his (other)
chain: QEGSLPDITIFPNSSLMISQGTFVTVVCSYSDKHDLYNMVALAKDGSTFMEKSTEPYKTEDEFEIGPVNETITGHYSCIYSKGITWSERSKTLELKVIKENVIQTPAPGPTSDTSWLKTYSIYQEGSLPDITIFPNSSLMISQGTFVTVVCSYSDKHDLYNMVALAKDGSTFMEKSTEPYKTEDEFEIGPVNETITGHYSCIYSKGITWSERSKTLELKVIKENVIQTPAPGPTSDTSWLKTYSIYEAHKSEIAHRYNDLGEQHFKGLVLIAFSQYLQKCSYDEHAKLVQEVTDFAKTCVADESAANCDKSLHTLFGDKLCAIPNLRENYGELADCCTKQEPERNECFLQHKDDNPSLPPFERPEAEAMCTSFKENPTTFMGHYLHEVARRHPYFYAPELLYYAEQYNEILTQCCAEADKESCLTPKLDGVKEKALVSSVRQRMKCSSMQKFGERAFKAWAVARLSQTFPNADFAEITKLATDLTKVNKECCHGDLLECADDRAELAKYMCENQATISSKLQTCCDKPLLKKAHCLSEVEHDTMPADLPAIAADFVEDQEVCKNYAEAKDVFLGTFLYEYSRRHPDYSVSLLLRLAKKYEATLEKCCAEANPPACYGTVLAEFQPLVEEPKNLVKTNCDLYEKLGEYGFQNAILVRYTQKAPQVSTPTLVEAARNLGRVGTKCCTLPEDQRLPCVEDYLSAILNRVCLLQEKTPVSEHVTKCCSGSLVERRPCFSALTVDETYVPKEFKAETFTFHSDICTLPEKEKQIKKQTALAELVKHKPKATAEQLKTVMDDFAQFLDTCCKAADKDTCFSTEGPNLVTRCKDALA
B8: LAIRx-his (domain or fragment)
chain: QEGSLPDITIFPNSSLMISQGTFVTVVCSYSDKHDLYNMVALAKDGSTFMEKSTEPYKTEDEFEIGPVNETITGHYSCIYSKGITWSERSKTLELKVIKENVIQTPAPGPTSDTSWLKTYSIY
B9: LAIR-his (domain or fragment)
chain: QEGSLPDITIFPNSSLMISQGTFVTVVCSYSDKHDLYNMVRLEKDGSTFMEKSTEPYKTEDEFEIGPVNETITGHYSCIYSKGITWSERSKTLELKVIKENVIQTPAPGPTSDTSWLKTYSIY

One assay deals with T1, collagen type I (UniProt P02454 152-1207; P02466 86-1125).
T1 construct: collagen type I, alpha-1 chain; collagen type I, alpha-2 chain; two alpha-1 chains and one alpha-2 chain, and rat as the source, are surmised; also called Collagen I (Gibco); native collagen; source: bought: Gibco
T1 sequence (P02454 152-1207, chain 1 of 2): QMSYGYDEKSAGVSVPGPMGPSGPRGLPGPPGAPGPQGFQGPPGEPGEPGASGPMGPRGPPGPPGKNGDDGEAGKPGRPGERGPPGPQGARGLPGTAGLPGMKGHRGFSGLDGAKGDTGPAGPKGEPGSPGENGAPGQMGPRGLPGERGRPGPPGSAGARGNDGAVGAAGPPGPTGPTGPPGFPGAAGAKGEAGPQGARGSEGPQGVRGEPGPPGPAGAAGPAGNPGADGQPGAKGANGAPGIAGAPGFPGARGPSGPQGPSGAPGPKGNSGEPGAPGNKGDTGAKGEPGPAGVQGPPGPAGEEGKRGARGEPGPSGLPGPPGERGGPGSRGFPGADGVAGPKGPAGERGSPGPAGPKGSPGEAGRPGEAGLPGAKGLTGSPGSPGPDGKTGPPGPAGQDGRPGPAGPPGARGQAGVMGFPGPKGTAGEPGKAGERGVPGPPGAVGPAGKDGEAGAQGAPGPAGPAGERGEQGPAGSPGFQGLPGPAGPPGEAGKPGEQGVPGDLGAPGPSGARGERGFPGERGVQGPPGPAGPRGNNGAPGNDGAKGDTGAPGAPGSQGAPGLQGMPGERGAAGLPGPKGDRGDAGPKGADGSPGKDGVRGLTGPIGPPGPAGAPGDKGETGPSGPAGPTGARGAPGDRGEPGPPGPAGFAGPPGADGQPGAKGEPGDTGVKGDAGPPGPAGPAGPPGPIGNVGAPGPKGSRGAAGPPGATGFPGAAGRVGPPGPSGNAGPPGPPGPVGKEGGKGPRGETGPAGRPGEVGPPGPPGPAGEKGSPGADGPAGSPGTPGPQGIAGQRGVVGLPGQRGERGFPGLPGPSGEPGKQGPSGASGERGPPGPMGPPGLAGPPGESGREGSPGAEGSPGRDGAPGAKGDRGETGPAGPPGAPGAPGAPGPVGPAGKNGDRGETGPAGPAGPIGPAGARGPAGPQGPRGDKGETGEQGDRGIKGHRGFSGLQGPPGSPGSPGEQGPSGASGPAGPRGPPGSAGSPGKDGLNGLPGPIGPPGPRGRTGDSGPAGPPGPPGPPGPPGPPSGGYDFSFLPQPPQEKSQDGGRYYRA
T1 sequence (P02466 86-1125, chain 2 of 2): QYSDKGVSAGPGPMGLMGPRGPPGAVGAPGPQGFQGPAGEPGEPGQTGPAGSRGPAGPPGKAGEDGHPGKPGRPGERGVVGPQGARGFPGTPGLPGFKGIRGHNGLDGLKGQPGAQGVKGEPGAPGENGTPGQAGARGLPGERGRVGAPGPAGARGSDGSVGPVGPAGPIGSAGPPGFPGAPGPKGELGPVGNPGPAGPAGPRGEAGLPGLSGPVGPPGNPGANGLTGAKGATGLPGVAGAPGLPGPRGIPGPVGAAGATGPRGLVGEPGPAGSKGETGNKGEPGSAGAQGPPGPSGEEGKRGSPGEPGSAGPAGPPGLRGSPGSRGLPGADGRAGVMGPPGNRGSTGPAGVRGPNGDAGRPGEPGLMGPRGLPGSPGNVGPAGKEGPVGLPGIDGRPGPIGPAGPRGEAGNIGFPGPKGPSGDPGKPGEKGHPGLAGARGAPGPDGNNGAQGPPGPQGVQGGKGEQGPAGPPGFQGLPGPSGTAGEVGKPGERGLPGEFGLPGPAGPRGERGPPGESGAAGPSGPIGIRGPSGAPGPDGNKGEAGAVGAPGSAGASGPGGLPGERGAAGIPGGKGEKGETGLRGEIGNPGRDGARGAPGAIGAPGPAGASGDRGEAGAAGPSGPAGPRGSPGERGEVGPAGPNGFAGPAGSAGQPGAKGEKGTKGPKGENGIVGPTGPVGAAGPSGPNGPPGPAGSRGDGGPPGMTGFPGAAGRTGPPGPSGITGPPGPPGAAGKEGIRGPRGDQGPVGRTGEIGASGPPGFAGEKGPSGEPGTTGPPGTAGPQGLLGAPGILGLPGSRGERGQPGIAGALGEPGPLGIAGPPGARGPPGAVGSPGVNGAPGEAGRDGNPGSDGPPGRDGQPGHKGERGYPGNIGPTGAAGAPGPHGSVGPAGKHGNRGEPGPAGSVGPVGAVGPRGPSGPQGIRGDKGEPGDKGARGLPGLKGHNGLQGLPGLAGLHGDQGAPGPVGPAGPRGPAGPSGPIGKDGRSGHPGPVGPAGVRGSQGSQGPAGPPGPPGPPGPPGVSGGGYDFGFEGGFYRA
The experiment in a line: ELISA; Collagen I (Gibco) coated 96-well plates; LAIR-MSA fusion proteins in PBSTA for 4 h at room temperature; detected with HRP-conjugated anti-6xHis; mean, n = 2.
Conditions: not given
(In an ELISA, binding on a coated surface is turned into a signal by an enzyme label.)
As a reminder, the Kd is the free concentration of one partner at which half of the binding sites on the other are occupied at equilibrium, for simple one-to-one binding. The low end stands for tighter binding, the high end for weaker binding. In turn, LAIR-MSA (from UniProt P07724 25-608) registered a Kd of 17 nM.

The same assay, now with this note: both partners purified.
Molecule B1 displayed a Kd of 120 nM.

For B2, the Kd stood at 130 nM. The Kd values of the last two molecules are within 1.5-fold of each other.

The molecule B3 yielded an equilibrium dissociation constant (Kd) of 63 nM.

In the case of B4, the affinity, expressed as Kd, was 96 nM.

The molecule B5 returned a dissociation constant (Kd) of 170 nM.

Turning to B6, the Kd stood at 220 nM.

In the next assay the target is Collagen I (Gibco), coated on 96-well plates (UniProt P02454 152-1207; P02466 86-1125). Kind of assay: ELISA.
Chain of Collagen I (Gibco), coated on 96-well plates (P02454 152-1207, chain 1 of 2): as the sequence (P02454 152-1207, chain 1 of 2) above
Chain of Collagen I (Gibco), coated on 96-well plates (P02466 86-1125, chain 2 of 2): as the sequence (P02466 86-1125, chain 2 of 2) above
Conditions: not given
For B7, the Kd was > 1000 nM.

Turning to B8, the Kd is > 1000 nM.

The molecule B9 had a Kd of 102 nM. That is a sub-micromolar value.
